What is called IC50 is the midpoint of a concentration-inhibition curve. A lower IC50 goes with greater potency.

*: point of attachment. NOTA = O=C(O)CN1CCN(CC(=O)O)CCN(CC(=O)*)CC1; Aoc = NCCCCCCCC(=O)O

The target of test [1] is T1, gastrin-releasing peptide receptor on PC-3 cells (UniProt P30550 1-384, limits assumed).
T1 construct: whole, on cells
The experiment in a line: competition with 125I-bombesin on 3x10^6 PC-3 cells, inhibitor 56 to 0.44 nM. How it is done: (§1) A NOTA-conjugated bombesin derivative (IMP468) was prepared as described above. […] Our initial experiment was to determine if IMP468 could specifically block bombesin from binding to PC-3 cells. We used IMP333 as a non-specific control. […] A range of 56 to 0.44 nM was used as our inhibitory concentrations.

Test [2] concerns the target T1, gastrin-releasing peptide receptor on …. The test can be described thus: competition with 125I-BBN on PC-3 cells, inhibitor 250 to 2 nM. How it is done: as §1
This experiment was repeated using a commercially available BBN peptide. We increased the amount of inhibitory peptide from 250 to 2 nM to block the ¹²⁵I-BBN from binding to PC-3 cells.

T1 sequence (P30550 whole entry): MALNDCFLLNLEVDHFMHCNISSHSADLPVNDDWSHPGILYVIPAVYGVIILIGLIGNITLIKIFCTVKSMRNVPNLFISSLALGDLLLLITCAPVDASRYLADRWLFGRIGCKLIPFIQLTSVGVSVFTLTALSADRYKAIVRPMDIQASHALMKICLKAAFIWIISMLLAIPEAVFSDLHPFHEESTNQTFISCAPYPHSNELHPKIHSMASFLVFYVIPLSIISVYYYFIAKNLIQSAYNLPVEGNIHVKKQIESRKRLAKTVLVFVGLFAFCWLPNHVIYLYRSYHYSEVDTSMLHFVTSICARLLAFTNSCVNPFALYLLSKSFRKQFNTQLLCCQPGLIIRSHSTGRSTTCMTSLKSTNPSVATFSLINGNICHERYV

B1: IMP468 (NOTA-NH-(CH2)7CO-Gln-Trp-Val-Trp-Ala-Val-Gly-His-Leu-Met-NH2) (peptide)
peptide: {NOTA-Aoc}-QWVWAVGHLM-NH2
SMILES: CSCC[C@H](NC(=O)[C@H](CC(C)C)NC(=O)[C@H](Cc1c[nH]cn1)NC(=O)CNC(=O)[C@@H](NC(=O)[C@H](C)NC(=O)[C@H](Cc1c[nH]c2ccccc12)NC(=O)[C@@H](NC(=O)[C@H](Cc1c[nH]c2ccccc12)NC(=O)[C@H](CCC(N)=O)NC(=O)CCCCCCCNC(=O)CN1CCN(CC(=O)O)CCN(CC(=O)O)CC1)C(C)C)C(C)C)C(N)=O
notes: also called NOTA-conjugated bombesin derivative; bombesin analogue
As for B1, the half-maximal inhibitory concentration (IC50) amounted to 21.5 nM in test [1] and 35.9 nM in test [2].
